The results in this text go back to patent US20150045540A1 (published 2015).

Assay [1] deals with Hepatocyte Growth Factor (HGF), human (human, UniProt P14210 32-728). The assay can be described thus: ELISA. In general terms: In an ELISA, binding on a coated surface is turned into a signal by an enzyme label.
Assay [2] deals with T1, Placenta Growth Factor (PlGF), human (human, UniProt P49763 21-149).
T1 chain: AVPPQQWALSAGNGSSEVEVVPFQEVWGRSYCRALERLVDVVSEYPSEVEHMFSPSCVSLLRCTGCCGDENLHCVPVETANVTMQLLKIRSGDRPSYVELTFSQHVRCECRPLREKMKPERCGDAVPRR
Kind of assay: ELISA.

In general, EC50 refers to the concentration that produces a half-maximal response. The low end stands for an effect from little substance, the high end for a need for much substance.

Sequence of Hepatocyte Growth Factor (HGF), human (P14210 32-728): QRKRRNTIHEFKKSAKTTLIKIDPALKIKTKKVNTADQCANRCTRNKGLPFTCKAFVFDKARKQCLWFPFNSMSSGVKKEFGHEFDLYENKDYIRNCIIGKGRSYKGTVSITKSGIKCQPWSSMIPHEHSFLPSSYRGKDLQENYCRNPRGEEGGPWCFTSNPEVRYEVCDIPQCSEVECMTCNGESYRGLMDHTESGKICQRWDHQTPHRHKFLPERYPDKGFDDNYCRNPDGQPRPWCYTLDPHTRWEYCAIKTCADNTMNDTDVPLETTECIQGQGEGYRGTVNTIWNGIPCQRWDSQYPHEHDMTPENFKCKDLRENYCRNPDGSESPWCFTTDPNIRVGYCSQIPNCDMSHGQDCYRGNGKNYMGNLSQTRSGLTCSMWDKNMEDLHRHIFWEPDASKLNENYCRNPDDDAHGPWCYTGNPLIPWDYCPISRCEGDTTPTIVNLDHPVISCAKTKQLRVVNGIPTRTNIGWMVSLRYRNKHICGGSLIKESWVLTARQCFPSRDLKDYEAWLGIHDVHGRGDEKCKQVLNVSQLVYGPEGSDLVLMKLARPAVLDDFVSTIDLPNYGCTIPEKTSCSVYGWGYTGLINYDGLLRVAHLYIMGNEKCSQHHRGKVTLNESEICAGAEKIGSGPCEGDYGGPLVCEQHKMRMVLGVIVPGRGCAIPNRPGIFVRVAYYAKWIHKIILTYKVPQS

B1: HC 6/SLC 15 (antibody)
chain 1: GQGTLVTVSSASTKGPQPVLHQPPAMSSALGTTIRLTCTLRNDHDIGVYSVYWYQQRPGHPPRFLLRYFSQSDKSQGPQVPPRFSGSKDVARNRGYLSISELQPEDEAMYYCAMGARSRCWPRGFQSKHNSVTHVFGSGTQLTVLSQPKATPSVTLFPPSSEELQANKATLVCLMNDFYPGILTVTWKADGTPITQGVEMTTPSKQSNNKYAASSYLSLTPEQWRSRRSYSCQVMHEGSTVEKTVAPAECS
chain 2: MSWAPVLLMLFVYCTGCGPQPVLHQPPAMSSALGTTIRLTCTLRNDHDIGVYSVYWYQQRPGHPPRFLLRYFSQSDKSQGPQVPPRFSGSKDVARNRGYLSISVTHVFGSGTQLTVLSQPKATPSVTGGGGSQVQLVQ
As to B1, the results for the concentration giving a half-maximal response (EC50) in assay [1] and in assay [2] were 0.05 nM and 0.046 nM, respectively.

B2: HC 4/SLC 7 (antibody)
chain 1: GQGTLVTVSSASTKQPVLHQPPAMSSALGTTIRLTCTLRNDHDIGVYSVYWYQQRPGHPPRFLLRYFSQSDKSQGPQVPPRFSGSKDVARNRGYLSISELQPEDEAMYYCAMGARSRCWPRGFQSKHNSVTHVFGSGTQLTVLSQPKATPSVTLFPPSSEELQANKATLVCLMNDFYPGILTVTWKADGTPITQGVEMTTPSKQSNNKYAASSYLSLTPEQWRSRRSYSCQVMHEGSTVEKTVAPAECS
chain 2: MSWAPVLLMLFVYCTGCGPQPVLHQPPAMSSALGTTIRLTCTLRNDHDIGVYSVYWYQQRPGHPPRFLLRYFSQSDKSQGPQVPPRFSGSKDVARNRGYLSISVTHVFGSGTQLTVLSQPKATPQVQLVQ
Take B2: the half-maximal effective concentration (EC50) worked out at 0.059 nM in assay [1] and 0.161 nM in assay [2].

B3: HC 5/SLC 7 (antibody)
chain 1: GQGTLVTVSSASTKGQPVLHQPPAMSSALGTTIRLTCTLRNDHDIGVYSVYWYQQRPGHPPRFLLRYFSQSDKSQGPQVPPRFSGSKDVARNRGYLSISELQPEDEAMYYCAMGARSRCWPRGFQSKHNSVTHVFGSGTQLTVLSQPKATPSVTLFPPSSEELQANKATLVCLMNDFYPGILTVTWKADGTPITQGVEMTTPSKQSNNKYAASSYLSLTPEQWRSRRSYSCQVMHEGSTVEKTVAPAECS
chain 2: B2 chain 2
Turning to B3, the concentration for a half-maximal effect (EC50) in assay [1] is 0.056 nM; in assay [2], 0.129 nM.

B4: HC 7/SLC 9 (antibody)
chain 1: GQGTLVTVSSASTKGPSQPVLHQPPAMSSALGTTIRLTCTLRNDHDIGVYSVYWYQQRPGHPPRFLLRYFSQSDKSQGPQVPPRFSGSKDVARNRGYLSISELQPEDEAMYYCAMGARSRCWPRGFQSKHNSVTHVFGSGTQLTVLSQPKATPSVTLFPPSSEELQANKATLVCLMNDFYPGILTVTWKADGTPITQGVEMTTPSKQSNNKYAASSYLSLTPEQWRSRRSYSCQVMHEGSTVEKTVAPAECS
chain 2: MSWAPVLLMLFVYCTGCGPQPVLHQPPAMSSALGTTIRLTCTLRNDHDIGVYSVYWYQQRPGHPPRFLLRYFSQSDKSQGPQVPPRFSGSKDVARNRGYLSISVTHVFGSGTQLTVLSQPKATPSVQVQLVQ
Consider B4, for which the EC50 turned out to be 0.048 nM in assay [1] and 0.057 nM in assay [2].

B5: HC 2/SLC 9 (antibody)
chain 1: GQGTLVTVSSASQPVLHQPPAMSSALGTTIRLTCTLRNDHDIGVYSVYWYQQRPGHPPRFLLRYFSQSDKSQGPQVPPRFSGSKDVARNRGYLSISELQPEDEAMYYCAMGARSRCWPRGFQSKHNSVTHVFGSGTQLTVLSQPKATPSVTLFPPSSEELQANKATLVCLMNDFYPGILTVTWKADGTPITQGVEMTTPSKQSNNKYAASSYLSLTPEQWRSRRSYSCQVMHEGSTVEKTVAPAECS
chain 2: B4 chain 2
For B5, the EC50 in assay [1] amounted to 0.063 nM; in assay [2], 0.195 nM.

B6: HC 7/SLC 4 (antibody)
chain 1: B4 chain 1
chain 2: MSWAPVLLMLFVYCTGCGPQPVLHQPPAMSSALGTTIRLTCTLRNDHDIGVYSVYWYQQRPGHPPRFLLRYFSQSDKSQGPQVPPRFSGSKDVARNRGYLSISVTHVFGSGTQLTVLSQPKQVQLVQ
Take B6: the results for the EC50 in assay [1] and in assay [2] were 0.065 nM and 0.204 nM, respectively.
